Substitutions are numbered along the chain they refer to.

Four molecules from US20140193915, “COMPOSITIONS AND METHODS FOR CUSTOM SITE-SPECIFIC DNA RECOMBINASES” (Monsanto Technology, LLC, published 2014) can be followed below.

Holding throughout (assay): cell_activity; E. coli
The target of data set [1] is T1, sN-TALER IV-2 (GinH106Y-TALE13) (synthetic).
T1 chain: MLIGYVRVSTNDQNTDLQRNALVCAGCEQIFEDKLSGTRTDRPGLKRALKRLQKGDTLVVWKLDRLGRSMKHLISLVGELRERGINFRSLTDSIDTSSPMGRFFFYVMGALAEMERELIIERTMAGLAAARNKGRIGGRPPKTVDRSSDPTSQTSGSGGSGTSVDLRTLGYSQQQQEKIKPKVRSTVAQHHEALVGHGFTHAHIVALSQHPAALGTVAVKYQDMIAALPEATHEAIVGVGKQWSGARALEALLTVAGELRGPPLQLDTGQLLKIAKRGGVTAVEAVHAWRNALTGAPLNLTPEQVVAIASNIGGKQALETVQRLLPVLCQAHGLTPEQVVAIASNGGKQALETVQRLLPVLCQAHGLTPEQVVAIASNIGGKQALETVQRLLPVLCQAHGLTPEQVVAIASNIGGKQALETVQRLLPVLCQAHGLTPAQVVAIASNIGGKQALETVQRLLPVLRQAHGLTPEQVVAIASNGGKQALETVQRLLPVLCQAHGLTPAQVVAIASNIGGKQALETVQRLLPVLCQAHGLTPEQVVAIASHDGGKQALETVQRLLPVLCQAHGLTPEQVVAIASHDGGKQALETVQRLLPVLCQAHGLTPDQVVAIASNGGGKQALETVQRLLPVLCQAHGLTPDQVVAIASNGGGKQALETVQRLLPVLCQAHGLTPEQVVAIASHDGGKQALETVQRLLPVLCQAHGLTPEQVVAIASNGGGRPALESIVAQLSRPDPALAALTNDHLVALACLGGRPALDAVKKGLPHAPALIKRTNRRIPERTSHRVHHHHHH
The note with it: tags: 6-His. As for the experimental part: (§1) To test for recombination, E. coli DH5alpha cells were co-transformed with different combinations of TALER expression construct and TALER reporter construct pairs (Tables 6 and 7). The N-TALER expression and reporter constructs were in an approximate 1:1 mass ratio during the transformation. The co-transformed bacteria were plated on media with chloramphenicol, kanamycin, and X-gal then incubated at 37° C. for 18 to 36 hours. Control samples consisted of transformations using the reporter construct alone. Control transformants were similarly plated. The bacterial transformation protocol was either heat shock or electroporation per standard molecular biology techniques.

Data set [2] has as its target T2, sN-TALER IV-1 (GinH106Y-TALE13) (synthetic).
T2 chain: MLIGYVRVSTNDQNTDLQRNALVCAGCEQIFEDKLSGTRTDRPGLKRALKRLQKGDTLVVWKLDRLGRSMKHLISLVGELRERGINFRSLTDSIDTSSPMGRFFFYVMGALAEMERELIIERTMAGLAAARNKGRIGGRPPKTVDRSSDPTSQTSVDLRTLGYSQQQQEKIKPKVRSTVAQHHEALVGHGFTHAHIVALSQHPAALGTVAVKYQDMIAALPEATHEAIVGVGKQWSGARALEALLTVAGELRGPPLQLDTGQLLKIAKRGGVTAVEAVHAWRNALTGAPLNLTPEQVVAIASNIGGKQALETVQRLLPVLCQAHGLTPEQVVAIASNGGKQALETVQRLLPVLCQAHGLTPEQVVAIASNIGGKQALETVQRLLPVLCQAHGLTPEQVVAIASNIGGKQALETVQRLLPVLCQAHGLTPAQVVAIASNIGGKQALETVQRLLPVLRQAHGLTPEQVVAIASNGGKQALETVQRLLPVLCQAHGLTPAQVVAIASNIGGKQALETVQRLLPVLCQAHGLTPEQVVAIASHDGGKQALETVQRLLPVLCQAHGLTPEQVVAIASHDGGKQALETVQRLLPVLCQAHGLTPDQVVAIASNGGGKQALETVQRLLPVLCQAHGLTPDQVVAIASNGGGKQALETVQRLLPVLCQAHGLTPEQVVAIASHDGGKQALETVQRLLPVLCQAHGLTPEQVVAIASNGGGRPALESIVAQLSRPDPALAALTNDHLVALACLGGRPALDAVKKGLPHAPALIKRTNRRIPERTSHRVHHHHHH
Particulars: tags: 6-His; chain copies: 2 per site, tetramer in synapsis (stated). As for the experimental part:
as §1

A further data set addresses T3, sN-TALER IV-3 (synthetic).
T3 chain: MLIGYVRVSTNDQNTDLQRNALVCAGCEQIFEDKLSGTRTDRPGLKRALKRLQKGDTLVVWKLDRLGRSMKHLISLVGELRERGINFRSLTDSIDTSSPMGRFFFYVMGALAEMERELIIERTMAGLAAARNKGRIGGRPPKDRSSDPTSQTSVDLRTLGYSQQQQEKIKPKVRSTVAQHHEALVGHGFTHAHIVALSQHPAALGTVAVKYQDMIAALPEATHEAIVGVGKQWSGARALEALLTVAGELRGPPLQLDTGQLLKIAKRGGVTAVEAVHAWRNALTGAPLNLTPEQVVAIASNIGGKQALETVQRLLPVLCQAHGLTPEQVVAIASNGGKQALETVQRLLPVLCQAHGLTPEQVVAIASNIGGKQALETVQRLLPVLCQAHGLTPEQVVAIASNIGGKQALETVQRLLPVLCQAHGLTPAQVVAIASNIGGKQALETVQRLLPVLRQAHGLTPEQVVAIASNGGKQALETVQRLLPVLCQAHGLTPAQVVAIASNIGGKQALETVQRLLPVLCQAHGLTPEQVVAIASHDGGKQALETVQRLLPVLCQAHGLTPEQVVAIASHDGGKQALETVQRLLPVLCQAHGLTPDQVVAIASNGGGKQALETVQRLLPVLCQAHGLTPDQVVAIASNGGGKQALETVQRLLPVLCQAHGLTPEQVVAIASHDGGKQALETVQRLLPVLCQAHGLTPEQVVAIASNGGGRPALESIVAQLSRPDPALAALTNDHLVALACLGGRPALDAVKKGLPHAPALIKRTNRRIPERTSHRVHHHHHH
Particulars: tags: 6-His. As for the experimental part:
as §1

For data set [3], the target named is T4, pN-TALER IV-1-EE2 (GinL7C7-EE2-TALE13) (synthetic).
T4 chain: T2 chain with V6A, D12G, N14S, N20D, K50E, M70V, I94V, Y106H, M108T, M114V
Particulars: tags: 6-His. As for the experimental part: as §1
Two additional N-TALERs, based on N-TALER IV-1, were constructed wherein the GinH106Y recombinase catalytic domain was replaced with either the GinL7C7-EE2 catalytic domain or the GinL7C7-EE3 permissive recombinase catalytic domain. These N-TALERs were labeled pN-TALER IV-1-EE2 (SEQ ID NO:41) and pN-TALER IV-1-EE3 (SEQ ID NO:45), respectively. pN-TALER IV-1-EE2 was tested in combination with seventeen N-TALER reporter constructs and pN-TALER IV-1-EE3 was tested with three reporter constructs (Table 10).

Data set [4] has as its target T4, pN-TALER IV-1-EE2 (GinL7C7-EE2-TALE13). Particulars: tags: 6-His. The source says:
(§2) To determine how much of the Gin20 sequence is required for recombination when the central sequence is maintained at a permitted length, N-TALER reporters were generated with a 20 bp recombinase central sequence between the TALE binding sites, where either the central 12 bp, or the central 10 bp, or the central 8 bp of the recombinase core sequence were held constant, and the remaining nucleotides were different from the Gin sequence. The N-TALER reporter with 12 bp was designated R45, the N-TALER reporter with 10 bp was designated R46, and the N-TALER reporter with 8 bp was designated R47. A N-TALER reporter with a 10 bp site 1 and a 12 bp site 2 was designated R46B, and a N-TALER reporter with a T and an A flanking the central AT di-nucleotide was designated R48 (see Table 33). The various reporters, including the pSC101 Gin20TALE13+0 were co-transformed with either sN-TALER-IV-1 or pN-TALER-IV-1 and recombination, as determined by colony color, was scored (Table 33). For purposes of comparison, the GinE site that was used in the generation of the GinL7C7-EE2 recombinase domain (Gersbach et al., 2010) was also included.
(§3) To confirm that white colonies resulted from recombination, the colonies were analyzed by colony PCR and sequencing of the PCR product. For the reporter that retained 12 bp from the Gin site, 8 of 8 colonies analyzed had the predicted recombination product for both the sN-TALER-IV-1 chimera and the pN-TALER-IV-1chimera (16 colonies total analyzed, 8 each). Likewise, for the reporter that retained 8 bp from the Gin site co-transformed with the pN-TALER-IV-1 chimera, 14 of 14 colonies analyzed had the predicted recombination product.

Data set [5] addresses T2, sN-TALER IV-1 (GinH106Y-TALE13). The note with it: tags: 6-His; chain copies: 2 per site, tetramer in synapsis (stated).
Excerpt: as §2, §3

B1: Gin20TALE+12 (dsDNA)
DNA 1: AGAAGGTATTTATATAGGCACACTTATCCAAAACCATGGTTTACAGGACCACACGGTATATAAATACCTTCT
DNA 2: AGAAGGTATTTATATACCGTGTGGTCCTGTAAACCATGGTTTTGGATAAGTGTGCCTATATAAATACCTTCT
As to B1, the activity in data set [1] was found to be 1 score; in data set [2], 2 score; with sN-TALER IV-3, 1 score; in data set [3], 2 score.

B2: R48 (dsDNA)
DNA 1: AGAAGGTATTTATATCCAAAACTATAGTTTACAGTATAAATACCTTCT
DNA 2: AGAAGGTATTTATACTGTAAACTATAGTTTTGGATATAAATACCTTCT
Turning to B2, the activity came to 1.5 score in data set [4] and 4.5 score in data set [5].

B3: R45 (12bp) (dsDNA)
DNA 1: AGAAGGTATTTATATCTCAAACCATGGTTTCACTTATAAATACCTTCT
DNA 2: B3 DNA 1 with T15A, C16G, C18G, C31G, C33G, T34A
Take B3: the activity in data set [4] was 1 score; in data set [5], 1.5 score.

B4: R46 (10bp) (dsDNA)
DNA 1: B3 DNA 1 with A19T, T30A
DNA 2: AGAAGGTATTTATAAGTGTAACCATGGTTAGAGATATAAATACCTTCT
Regarding B4, the activity in data set [4] is 1.5 score; in data set [5], 4.5 score.
